Results taken from the Human Domainome abundance scans (Beltran et al. 2025).
± gives the uncertainty stated by the source.

B1: Cell division cycle and apoptosis regulator protein 1, residues 625 to 674; numbered along this chain, Q8IX12 (parent)
chain: ISTPTHWSKLDPKTMKVNDLRKELESRALSSKGLKSQLIARLTKQLKVEE

Variants of: B1
Assay: abundance fitness (aPCA) (normalised: wild type 0, dead -1); higher = more abundant; growth selection in yeast, the domain comes from the species named
Conditions: Homo sapiens

| Variant | abundance fitness |
| --- | --- |
| ISTPTHWSKLDPKTMKVNDLRKELESRALSSKGLKSQFIARLTKQLKVEE [L38F] | -0.866 ± 0.085 |
| ISTPTHWSKLDPKTMKVNDLRKELESRALSSKGLKSQEIARLTKQLKVEE [L38E] | -0.423 ± 0.035 |
| ISTPTHWSKLDPKTMKVNDLRKELESRALSSKGLKSQDIARLTKQLKVEE [L38D] | -0.332 ± 0.045 |
| ISTPTHWSKLDPKTMKVNDLRKELESRALSSKGLKSQCIARLTKQLKVEE [L38C] | -0.477 ± 0.066 |
| ISTPTHWSKLDPKTMKVNDLRKELESRALSSKGLKSQAIARLTKQLKVEE [L38A] | -0.534 ± 0.03 |
| ISTPTHWSKLDPKTMKVNDLRKELESRALSSKGLCSQLIARLTKQLKVEE [K35C] | -0.355 ± 0.058 |
| ISTPTHWSKLDPKTMKVNDLRKELESRALSSKGLESQLIARLTKQLKVEE [K35E] | -0.074 ± 0.048 |
| ISTPTHWSKLDPKTMKVNDLRKELESRALSSKGLMSQLIARLTKQLKVEE [K35M] | -0.244 ± 0.048 |
| ISTPTHWSKLDPKTMKVNDLRKELESRALSSKGLWSQLIARLTKQLKVEE [K35W] | -0.482 ± 0.032 |
| ISTPTHWSKLDPKTMKVNDLRKELESRALSSKGLTSQLIARLTKQLKVEE [K35T] | -0.276 ± 0.061 |
| ISTPTHWSKLDPKTMKVNDLRKELESRALSSKGLLSQLIARLTKQLKVEE [K35L] | -0.243 ± 0.043 |
| ISTPTHWSKLDPKTMKVNDLRKELESRALSSKGLVSQLIARLTKQLKVEE [K35V] | -0.264 ± 0.038 |
| ISTPTHWSKLDPKTMKVNDLRKELESRALSSKGLISQLIARLTKQLKVEE [K35I] | -0.249 ± 0.055 |
| ISTPTHWSKLDPKTMKVNDLRKELESRALSSKGLFSQLIARLTKQLKVEE [K35F] | -0.419 ± 0.08 |
| ISTPTHWSKLDPKTMKVNDLRKELESRALSSKGLSSQLIARLTKQLKVEE [K35S] | -0.288 ± 0.044 |
| ISTPTHWSKLDPKTMKVNDLRKELESRALSSKGLYSQLIARLTKQLKVEE [K35Y] | -0.333 ± 0.045 |
| ISTPTHWSKLDPKTMKVNDLRKELESRALSSKGLQSQLIARLTKQLKVEE [K35Q] | -0.299 ± 0.08 |
| ISTPTHWSKLDPKTMKVNDLRKELESRALSSKGLGSQLIARLTKQLKVEE [K35G] | -0.356 ± 0.031 |
| ISTPTHWSKLDPKTMKVNDLRKELESRALSSKGLNSQLIARLTKQLKVEE [K35N] | -0.212 ± 0.054 |
| ISTPTHWSKLDPKTMKVNDLRKELESRALSSKGLDSQLIARLTKQLKVEE [K35D] | -0.212 ± 0.054 |
| ISTPTHWSKLDPKTMKVNDLRKELESRALSSKGLKTQLIARLTKQLKVEE [S36T] | -0.049 ± 0.052 |
| ISTPTHWSKLDPKTMKVNDLRKELESRALSSKGLKPQLIARLTKQLKVEE [S36P] | -0.005 ± 0.048 |
| ISTPTHWSKLDPKTMKVNDLRKELESRALSSKGLKMQLIARLTKQLKVEE [S36M] | -0.169 ± 0.05 |
| ISTPTHWSKLDPKTMKVNDLRKELESRALSSKGLKAQLIARLTKQLKVEE [S36A] | -0.121 ± 0.043 |
| ISTPTHWSKLDPKTMKVNDLRKELESRALSSKGLKYQLIARLTKQLKVEE [S36Y] | -0.115 ± 0.043 |
| ISTPTHWSKLDPKTMKVNDLRKELESRALSSKGLKEQLIARLTKQLKVEE [S36E] | -0.151 ± 0.047 |

| Variant | abundance fitness |
| --- | --- |
| ISTPTHWSKLDPKTMKVNDLRKELESRALSSKGLKDQLIARLTKQLKVEE [S36D] | -0.085 ± 0.065 |
| ISTPTHWSKLDPKTMKVNDLRKELESRALSSKGLKRQLIARLTKQLKVEE [S36R] | -0.115 ± 0.032 |
| ISTPTHWSKLDPKTMKVNDLRKELESRALSSKGLKLQLIARLTKQLKVEE [S36L] | -0.159 ± 0.037 |
| ISTPTHWSKLDPKTMKVNDLRKELESRALSSKGLKHQLIARLTKQLKVEE [S36H] | -0.195 ± 0.058 |
| ISTPTHWSKLDPKTMKVNDLRKELESRALSSKGLKFQLIARLTKQLKVEE [S36F] | -0.186 ± 0.05 |
| ISTPTHWSKLDPKTMKVNDLRKELESRALSSKGLKVQLIARLTKQLKVEE [S36V] | -0.105 ± 0.043 |
| ISTPTHWSKLDPKTMKVNDLRKELESRALSSKGLKWQLIARLTKQLKVEE [S36W] | -0.114 ± 0.032 |
| ISTPTHWSKLDPKTMKVNDLRKELESRALSSKGLKNQLIARLTKQLKVEE [S36N] | -0.146 ± 0.064 |
| ISTPTHWSKLDPKTMKVNDLRKELESRALSSKGLKKQLIARLTKQLKVEE [S36K] | -0.118 ± 0.062 |
| ISTPTHWSKLDPKTMKVNDLRKELESRALSSKGLKSELIARLTKQLKVEE [Q37E] | 0.058 ± 0.051 |
| ISTPTHWSKLDPKTMKVNDLRKELESRALSSKGLKSMLIARLTKQLKVEE [Q37M] | -0.042 ± 0.034 |
| ISTPTHWSKLDPKTMKVNDLRKELESRALSSKGLKSHLIARLTKQLKVEE [Q37H] | -0.455 ± 0.11 |
| ISTPTHWSKLDPKTMKVNDLRKELESRALSSKGLKSKLIARLTKQLKVEE [Q37K] | -0.108 ± 0.037 |
| ISTPTHWSKLDPKTMKVNDLRKELESRALSSKGLKSALIARLTKQLKVEE [Q37A] | 0.004 ± 0.048 |
| ISTPTHWSKLDPKTMKVNDLRKELESRALSSKGLKSILIARLTKQLKVEE [Q37I] | -0.513 ± 0.056 |
| ISTPTHWSKLDPKTMKVNDLRKELESRALSSKGLKSSLIARLTKQLKVEE [Q37S] | -0.061 ± 0.035 |
| ISTPTHWSKLDPKTMKVNDLRKELESRALSSKGLKSVLIARLTKQLKVEE [Q37V] | 0.002 ± 0.033 |
| ISTPTHWSKLDPKTMKVNDLRKELESRALSSKGLKSFLIARLTKQLKVEE [Q37F] | -0.256 ± 0.047 |
| ISTPTHWSKLDPKTMKVNDLRKELESRALSSKGLKSRLIARLTKQLKVEE [Q37R] | -0.168 ± 0.032 |
| ISTPTHWSKLDPKTMKVNDLRKELESRALSSKGLKSTLIARLTKQLKVEE [Q37T] | -0.093 ± 0.032 |
| ISTPTHWSKLDPKTMKVNDLRKELESRALSSKGLKSCLIARLTKQLKVEE [Q37C] | -0.04 ± 0.054 |
| ISTPTHWSKLDPKTMKVNDLRKELESRALSSKGLKSPLIARLTKQLKVEE [Q37P] | -0.231 ± 0.054 |
| ISTPTHWSKLDPKTMKVNDLRKELESRALSSKGLKSLLIARLTKQLKVEE [Q37L] | -0.178 ± 0.03 |
| ISTPTHWSKLDPKTMKVNDLRKELESRALSSKGLKSWLIARLTKQLKVEE [Q37W] | -0.459 ± 0.054 |
| ISTPTHWSKLDPKTMKVNDLRKELESRALSSKGLKSYLIARLTKQLKVEE [Q37Y] | -0.274 ± 0.042 |
| ISTPTHWSKLDPKTMKVNDLRKELESRALSSKGLKSGLIARLTKQLKVEE [Q37G] | -0.253 ± 0.038 |
